In article PMC5052687:
pKd: −log10 of the molar value.

Molecular target: human CD36 ectodomain (residues 35-439), C-terminal 8xHis and biotinylated BAP tag (human) (UniProt P16671)
Experiment: SPR; biotinylated CD36 (wild type or F153A) immobilised on a CAPture chip to ~700 RU; CIDRα domains as analytes, two-fold dilutions from 400 nM (Supplementary Figure 10: 400 nM only), 240 s injection, 300 s dissociation; 25 °C, 20 mM HEPES pH 7.5, 0.15 M NaCl, 0.005% Tween20; affinities from equilibrium binding, one site-binding model

Chain of human CD36 ectodomain (residues 35-439), C-terminal 8xHis and biotinylated BAP tag (human) (P16671 35-439): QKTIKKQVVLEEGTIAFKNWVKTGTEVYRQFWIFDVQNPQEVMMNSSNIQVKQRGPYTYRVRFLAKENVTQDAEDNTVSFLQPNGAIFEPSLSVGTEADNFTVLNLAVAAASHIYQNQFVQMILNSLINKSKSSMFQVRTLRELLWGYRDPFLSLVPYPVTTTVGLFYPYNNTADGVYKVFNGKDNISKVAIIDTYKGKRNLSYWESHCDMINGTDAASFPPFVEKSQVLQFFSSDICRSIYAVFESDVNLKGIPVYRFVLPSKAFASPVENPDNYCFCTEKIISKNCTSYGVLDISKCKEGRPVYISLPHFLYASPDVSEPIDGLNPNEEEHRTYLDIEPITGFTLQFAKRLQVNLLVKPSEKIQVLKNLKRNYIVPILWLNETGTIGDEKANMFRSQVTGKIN

**Q.** How did the pKd turn out when “IT4var26 CIDRα3.3 domain (domain or fragment)” was run?
**A.** 8.02
